B1: Cdc24-mScarlet-TsCC(B) (other, not shown: large carriers)
chain: MAIQTRFASGTSLSDLKPKPSATSISIPMQNVMNKPVTEQDSLFHICANIRKRLEVLPQLKPFLQLAYQSSEVLSERQSLLLSQKQHQELLKSNGANRDSSDLAPTLRSSSISTATSLMSMEGISYTNSNPSATPNMEDTLLTFSMGILPITMDCDPVTQLSQLFQQGAPLCILFNSVKPQFKLPVIASDDLKVCKKSIYDFILGCKKHFAFNDEELFTISDVFANSTSQLVKVLEVVETLMNSSPTIFPSKSKTQQIMNAENQHRHQPQQSSKKHNEYVKIIKEFVATERKYVHDLEILDKYRQQLLDSNLITSEELYMLFPNLGDAIDFQRRFLISLEINALVEPSKQRIGALFMHSKHFFKLYEPWSIGQNAAIEFLSSTLHKMRVDESQRFIINNKLELQSFLYKPVQRLCRYPLLVKELLAESSDDNNTKELEAALDISKNIARSINENQRRTENHQVVKKLYGRVVNWKGYRISKFGELLYFDKVFISTTNSSSEPEREFEVYLFEKIIILFSEVVTKKSASSLILKKKSSTSASISASNITDNNGSPHHSYHKRHSNSSSSNNIHLSSSSAAAIIHSSTNSSDNNSNNSSSSSLFKLSANEPKLDLRGRIMIMNLNQIIPQNNRSLNITWESIKEQGNFLLKFKNEETRDNWSSCLQQLIHDLKNEQFKARHHSSTSTTSSTAKSSSMMSPTTTMNTPNHHNSRQTHDSMASFSSSHMKRVSDVLPKRRTTSSSFESEIKSISENFKNSIPESSILFRISYNNNSNNTSSSEIFTLLVEKVWNFDDLIMAINSKISNTHNNNISPITKIKYQDEDGDFVVLGSDEDWNVAKEMLAENNEKFLNIRLYVEVAEEVKAVSAALSERITQLATELNDKAVRAAERRVAEVTRAAGEQTAQAERELADAAQTVDDLEEKLVELQDRYDSLTLALESERSLRQQHDVEMAQLKERLAAAEENTRQEEERYQEQKTVLQDALNAEQAQHKNTREDLQKRLEQISVEANARTEELKSERDKVNTFLTRLESQENALASEEQQHLATRETLQQRLEQAIADTQARAGEIALERDRVSSLTARLESQEKASSEQLVRMGSEIASLTERCTQLENQRDDARLETMGEKETVAALRGEAEALKRQNQSLMAALSGNKQTGGQNA

How the values were obtained:
[1] = target: TsCC(A)-(RGG)3-GFP scaffold (Caenorhabditis elegans); experiment: cell-based or functional assay
RGG-SZ2 = target: T1, RGG-SZ2 (Caenorhabditis elegans); experiment: fluorescence microscopy of purified proteins, 4 µM
T1 construct: Purified from E. coli; also called single RGG domain tagged with SZ2
T1 chain: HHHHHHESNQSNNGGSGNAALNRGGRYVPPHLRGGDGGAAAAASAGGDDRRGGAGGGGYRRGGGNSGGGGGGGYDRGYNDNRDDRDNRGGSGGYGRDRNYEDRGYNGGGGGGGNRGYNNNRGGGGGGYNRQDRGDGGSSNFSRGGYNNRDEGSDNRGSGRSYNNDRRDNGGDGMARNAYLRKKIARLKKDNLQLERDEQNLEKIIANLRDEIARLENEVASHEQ

Cdc24-mScarlet-TsCC(B) = target: B1; experiment: fluorescence microscopy of client localization in yeast

Question: With B1 as the binder, how does the “fold decrease in rate of cell proliferation in liquid culture” value [1] read?
Answer: ~12 fold

B2: SZ1-RGG (other)
chain: HHHHHHMNLVAQLENEVASLENENETLKKKNLHKKDLIAYLEKEIANLRKKIEEESNQSNNGGSGNAALNRGGRYVPPHLRGGDGGAAAAASAGGDDRRGGAGGGGYRRGGGNSGGGGGGGYDRGYNDNRDDRDNRGGSGGYGRDRNYEDRGYNGGGGGGGNRGYNNNRGGGGGGYNRQDRGDGGSSNFSRGGYNNRDEGSDNRGSGRSYNNDRRDNGGDG
notes: Purified from E. coli; also called single RGG domain tagged with SZ1
Question: Does B2 bind (RGG-SZ2)?
Answer: binds

B3: (RGG)3 condensates that lack the interaction tag (other)
chain: ESNQSNNGGSGNAALNRGGRYVPPHLRGGDGGAAAAASAGGDDRRGGAGGGGYRRGGGNSGGGGGGGYDRGYNDNRDDRDNRGGSGGYGRDRNYEDRGYNGGGGGGGNRGYNNNRGGGGGGYNRQDRGDGGSSNFSRGGYNNRDEGSDNRGSGRSYNNDRRDNGGDGESNQSNNGGSGNAALNRGGRYVPPHLRGGDGGAAAAASAGGDDRRGGAGGGGYRRGGGNSGGGGGGGYDRGYNDNRDDRDNRGGSGGYGRDRNYEDRGYNGGGGGGGNRGYNNNRGGGGGGYNRQDRGDGGSSNFSRGGYNNRDEGSDNRGSGRSYNNDRRDNGGDGESNQSNNGGSGNAALNRGGRYVPPHLRGGDGGAAAAASAGGDDRRGGAGGGGYRRGGGNSGGGGGGGYDRGYNDNRDDRDNRGGSGGYGRDRNYEDRGYNGGGGGGGNRGYNNNRGGGGGGYNRQDRGDGGSSNFSRGGYNNRDEGSDNRGSGRSYNNDRRDNGGDG
notes: Control scaffold without coiled-coil tag; The other scaffolds carry GFP; also called control scaffolds that lack the cognate coiled-coil tag
Question: Does B3 bind (Cdc24-mScarlet-TsCC(B))?
Answer: no binding
